Reference: patent US20160058886A1

Experiments:
[1] = molecular target: nucleolin at the surface of MDA-MB-231 and MDA-MB-435S breast cancer cells (UniProt P19338); assay: flow cytometry, rhodamine geometric mean fluorescence, MDA-MB-231 cells
[2] = molecular target: nucleolin at the surface of MDA-MB-231 and MDA-MB-435S breast cancer cells (UniProt P19338); assay: flow cytometry, rhodamine geometric mean fluorescence, MDA-MB-435S cells

Chain of UniProt P19338 (P19338 2-710 limits assumed): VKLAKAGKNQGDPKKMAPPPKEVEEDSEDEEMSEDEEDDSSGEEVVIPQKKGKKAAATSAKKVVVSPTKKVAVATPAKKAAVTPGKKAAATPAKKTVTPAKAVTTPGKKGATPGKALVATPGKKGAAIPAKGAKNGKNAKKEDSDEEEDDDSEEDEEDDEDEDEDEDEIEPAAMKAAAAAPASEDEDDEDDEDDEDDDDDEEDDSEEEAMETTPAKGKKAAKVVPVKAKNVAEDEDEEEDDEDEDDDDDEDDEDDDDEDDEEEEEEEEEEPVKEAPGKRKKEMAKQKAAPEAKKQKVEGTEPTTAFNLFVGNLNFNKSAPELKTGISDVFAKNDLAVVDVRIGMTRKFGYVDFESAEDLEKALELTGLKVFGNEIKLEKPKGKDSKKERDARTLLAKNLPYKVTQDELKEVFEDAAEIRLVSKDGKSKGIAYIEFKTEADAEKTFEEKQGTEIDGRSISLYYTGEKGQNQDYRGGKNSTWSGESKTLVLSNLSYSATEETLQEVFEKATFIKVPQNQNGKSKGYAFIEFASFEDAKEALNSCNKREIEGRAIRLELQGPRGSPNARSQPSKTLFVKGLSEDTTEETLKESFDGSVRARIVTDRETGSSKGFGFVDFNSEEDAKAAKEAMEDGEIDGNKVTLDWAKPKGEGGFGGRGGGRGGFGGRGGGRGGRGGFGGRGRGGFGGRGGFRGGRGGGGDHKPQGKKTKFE

higher cellular association of the CD44+/ALDHhi population against the CD44-/ALDH-/low population (MDA-MB-231) [1]: 64% | higher cellular association of the CD44+/ALDHhi population against the CD44-/ALDH-/low population (MDA-MB-435S) [2]: 61%
Substance: F3 peptide-targeted liposomes (F3 peptide, SEQ ID NO:1, coupled through DSPE-PEG2k to pH-sensitive liposomes)
